According to PMC5987771:

Biological target: T1, Pot1pC (C-terminal domain of the Pot1 DNA-binding domain) (Schizosaccharomyces pombe, UniProt O13988 198-339, V199D)
T1 sequence: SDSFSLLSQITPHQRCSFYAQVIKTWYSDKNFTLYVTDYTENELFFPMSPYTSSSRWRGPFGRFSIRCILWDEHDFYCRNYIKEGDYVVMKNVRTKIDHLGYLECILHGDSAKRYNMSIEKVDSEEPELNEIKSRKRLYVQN
Experiment: X-ray crystallography

B1: 1R (mixed)
DNA: GGTTACGGT
modifications: ribose at 1 (rG1), rest DNA
**Q.** Does B1 bind?
**A.** binds
